Legend:
[1] = biological target: T1, Recombinant truncated human his-tag B7-H3 protein (amino acids 1-461 of SEQ ID NO:1 with a carboxy terminal … (human, UniProt Q5ZPR3 29-461)); assay: SPR (BIAcore 3000), antibody captured by anti-human Fc, his-tagged B7-H3 as analyte from 100 nM, 1:1 model
T1 construct: also called his-tagged B7-H3 protein; recombinant human his-tagged B7-H3 protein
T1 sequence: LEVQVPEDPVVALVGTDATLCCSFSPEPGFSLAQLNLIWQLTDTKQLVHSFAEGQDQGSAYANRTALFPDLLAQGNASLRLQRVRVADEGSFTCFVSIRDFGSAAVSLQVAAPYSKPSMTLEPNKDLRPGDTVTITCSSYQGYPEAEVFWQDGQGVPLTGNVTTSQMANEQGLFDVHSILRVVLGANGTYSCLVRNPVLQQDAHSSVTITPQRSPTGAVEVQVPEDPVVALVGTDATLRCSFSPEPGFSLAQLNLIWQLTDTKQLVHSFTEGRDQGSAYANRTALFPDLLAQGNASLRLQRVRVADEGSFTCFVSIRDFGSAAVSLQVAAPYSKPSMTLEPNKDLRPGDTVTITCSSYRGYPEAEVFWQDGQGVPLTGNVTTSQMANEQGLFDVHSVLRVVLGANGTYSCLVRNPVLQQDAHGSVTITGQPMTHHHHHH

[2] = biological target: T2, rat B7-H3 antigen protein (Sino Biologicals; Cat. No. 80380-R02H-20) (rat, UniProt Q7TPB4 29-248); assay: ELISA, antigen coated at 50 ng/well
T2 construct: Bought protein
T2 sequence (looked up): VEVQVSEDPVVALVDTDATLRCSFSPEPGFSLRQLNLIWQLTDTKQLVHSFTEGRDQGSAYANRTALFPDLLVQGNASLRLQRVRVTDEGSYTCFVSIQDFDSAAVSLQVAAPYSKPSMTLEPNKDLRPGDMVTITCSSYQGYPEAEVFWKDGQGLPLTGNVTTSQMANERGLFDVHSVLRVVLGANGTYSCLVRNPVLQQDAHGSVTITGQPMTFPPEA

[3] = biological target: T3, Human B7-H3 protein (UniProt Q5ZPR3-1) on cells (human, UniProt Q5ZPR3 29-534); assay: flow cytometry on human osteosarcoma U2OS cells
T3 construct: This is endogenous B7-H3 on U2OS, SK-N-BE(2), A375, A549 and Panc-1 cells, on monocyte-derived dendritic cells and in patient tumour tissue; also called CD276; surface antigen expressed by human cancer cells
T3 sequence: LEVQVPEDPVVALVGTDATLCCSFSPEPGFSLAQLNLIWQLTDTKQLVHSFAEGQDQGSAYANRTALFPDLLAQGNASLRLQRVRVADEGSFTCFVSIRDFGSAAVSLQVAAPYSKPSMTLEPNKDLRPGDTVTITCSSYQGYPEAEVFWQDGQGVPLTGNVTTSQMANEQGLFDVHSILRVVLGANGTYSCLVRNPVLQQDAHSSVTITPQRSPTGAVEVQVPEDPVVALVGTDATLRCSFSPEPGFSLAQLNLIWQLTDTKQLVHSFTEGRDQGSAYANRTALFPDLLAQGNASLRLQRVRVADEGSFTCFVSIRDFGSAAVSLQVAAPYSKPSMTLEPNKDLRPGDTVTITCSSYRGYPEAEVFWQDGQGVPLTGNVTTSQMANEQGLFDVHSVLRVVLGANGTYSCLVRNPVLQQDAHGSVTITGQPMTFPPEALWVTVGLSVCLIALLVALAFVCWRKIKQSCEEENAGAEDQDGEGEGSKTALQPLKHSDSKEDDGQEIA

[4] = biological target: T1, Recombinant truncated human his-tag …; assay: SPR (Biacore T200), antibody captured by anti-human Fc, his-tagged B7-H3 as analyte from 100 nM, 1:1 model
human B7-H6 = biological target: T4, human B7-H6 (human, UniProt Q68D85 25-262); assay: ELISA, antigen coated at 50 ng/well, antibody serially diluted
T4 construct: Bought protein; also called NCR3LG1
T4 sequence (looked up): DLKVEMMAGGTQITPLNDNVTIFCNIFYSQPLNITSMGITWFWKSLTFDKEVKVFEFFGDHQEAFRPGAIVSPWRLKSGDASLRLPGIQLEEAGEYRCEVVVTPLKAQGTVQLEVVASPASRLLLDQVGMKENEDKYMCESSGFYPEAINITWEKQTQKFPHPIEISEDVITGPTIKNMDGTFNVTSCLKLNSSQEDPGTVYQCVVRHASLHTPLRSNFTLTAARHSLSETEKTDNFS

human B7-H7 = biological target: T5, human B7-H7 (human, UniProt Q9UM44 23-344); assay: as above
T5 construct: Bought protein; also called HHLA2
T5 sequence (looked up): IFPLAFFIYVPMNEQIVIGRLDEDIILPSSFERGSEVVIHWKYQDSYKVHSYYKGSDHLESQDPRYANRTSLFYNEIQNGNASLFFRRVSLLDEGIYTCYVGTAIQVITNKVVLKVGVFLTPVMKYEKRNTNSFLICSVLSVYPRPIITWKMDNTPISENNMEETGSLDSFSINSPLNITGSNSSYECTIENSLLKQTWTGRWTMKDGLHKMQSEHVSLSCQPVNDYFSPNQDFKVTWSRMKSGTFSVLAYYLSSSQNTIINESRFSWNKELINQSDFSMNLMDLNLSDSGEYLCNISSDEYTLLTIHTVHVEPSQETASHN

human B7.1 = biological target: T6, human B7.1 (human, UniProt P33681 35-242); assay: as above
T6 construct: Bought protein; also called CD80
T6 sequence (looked up): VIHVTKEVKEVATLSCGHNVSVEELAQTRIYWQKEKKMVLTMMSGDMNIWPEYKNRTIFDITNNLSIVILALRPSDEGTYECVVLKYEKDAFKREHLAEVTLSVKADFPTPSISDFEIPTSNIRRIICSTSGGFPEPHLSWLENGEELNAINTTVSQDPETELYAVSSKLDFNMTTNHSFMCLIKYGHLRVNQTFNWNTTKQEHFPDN

human B7.2 = biological target: T7, human B7.2 (human, UniProt P42081 24-247, limits assumed); assay: as above
T7 construct: Bought protein; also called CD86
T7 sequence (looked up): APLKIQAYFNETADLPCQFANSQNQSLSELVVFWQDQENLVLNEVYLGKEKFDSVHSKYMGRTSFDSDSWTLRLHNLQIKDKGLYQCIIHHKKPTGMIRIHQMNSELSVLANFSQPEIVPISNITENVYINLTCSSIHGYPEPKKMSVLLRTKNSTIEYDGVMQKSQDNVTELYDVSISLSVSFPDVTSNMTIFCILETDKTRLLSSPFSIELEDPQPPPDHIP

human B7-H1 = biological target: T8, human B7-H1 (human, UniProt Q9NZQ7 19-239); assay: as above
T8 construct: Bought protein; also called PD-L1; CD274
T8 sequence (Q9NZQ7 19-239 limits assumed): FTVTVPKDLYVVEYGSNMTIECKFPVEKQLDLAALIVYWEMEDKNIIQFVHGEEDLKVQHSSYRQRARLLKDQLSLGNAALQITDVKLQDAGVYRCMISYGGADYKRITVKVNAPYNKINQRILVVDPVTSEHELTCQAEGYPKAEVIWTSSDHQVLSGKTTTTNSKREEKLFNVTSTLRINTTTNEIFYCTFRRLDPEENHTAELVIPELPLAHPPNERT

human B7-H2 = biological target: T9, human B7-H2 (human, UniProt O75144 19-258, limits assumed); assay: as above
T9 construct: Bought protein; also called ICOSL
T9 sequence (looked up): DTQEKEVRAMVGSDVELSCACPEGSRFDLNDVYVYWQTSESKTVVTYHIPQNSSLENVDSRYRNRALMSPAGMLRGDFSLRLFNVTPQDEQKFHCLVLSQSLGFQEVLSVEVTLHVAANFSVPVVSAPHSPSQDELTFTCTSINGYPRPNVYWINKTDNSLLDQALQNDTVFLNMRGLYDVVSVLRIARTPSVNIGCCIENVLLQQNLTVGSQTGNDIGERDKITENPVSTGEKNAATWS

human B7-H4 = biological target: T10, human B7-H4 (human, UniProt Q7Z7D3 25-258, limits assumed); assay: as above
T10 construct: Bought protein; also called B7S1; B7x
T10 sequence (looked up): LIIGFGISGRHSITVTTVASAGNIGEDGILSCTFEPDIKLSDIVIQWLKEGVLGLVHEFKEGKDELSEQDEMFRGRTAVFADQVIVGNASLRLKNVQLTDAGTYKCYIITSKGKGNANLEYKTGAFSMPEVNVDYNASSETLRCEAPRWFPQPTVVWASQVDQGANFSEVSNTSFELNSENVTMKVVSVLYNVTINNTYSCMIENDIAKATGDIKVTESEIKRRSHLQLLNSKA

human B7-H5 = biological target: T11, human B7-H5 (human, UniProt Q9H7M9 33-194); assay: as above
T11 construct: Bought protein; also called VISTA; GI24

B1: B3-2H1 (antibody, V domains shown)
VH: QVQLQQSGAEVEKPGASVEVSCRASGYTFTSYYIHWVRQAPGQGLEWVGMITPLSGGTTYAQKFQGRVTMTRDTSTSTVYMNLSSLRSEDTAVYFCARGGRAVASSFEFWGQGTLVTVSS
VL: QSVLTQPRSVSGSPGQSVTISCTGTSSDVGGYNYVSWYQQHPGKAPKLMIYDVSKRPSGVPDRFSGSKSGNTASLTISGLQAEDEADYYCCSYAGSYTEVFGTGTKVTVL
notes: It was captured by anti-human Fc
[1]
  binding result: binds

B2: Enoblituzumab (B7-H3 Macrogenics; MGA271; MG-B7-H3) (antibody, human IgG1, kappa, V domains shown)
VH: EVQLVESGGGLVQPGGSLRLSCAASGFTFSSFGMHWVRQAPGKGLEWVAYISSDSSAIYYADTVKGRFTISRDNAKNSLYLQMNSLRDEDTAVYYCGRGRENIYYGSRLDYWGQGTTVTVSS
VL: DIQLTQSPSFLSASVGDRVTITCKASQNVDTNVAWYQQKPGKAPKALIYSASYRYSGVPSRFSGSGSGTDFTLTISSLQPEDFATYYCQQYNNYPFTFGQGTKLEIKR
notes: also called B7-H3 MG; Macrogenics' B7-H3
[2]
  binding result: binds
[3]
  binding result: binds
[4]
  binding result: binds

B3: B3-4F7 (antibody, V domains shown)
VH: QVQLVQSGAEVKKPGASVKVSCKASGYTFTSYGISWVRQAPGQGLEWMGWISAYNGNTNYAQKLQGRVTMTTDTSTSTAYMELRSLRSDDTAVYYCARDGYYGSGSHPWGQGTLVTVSS
VL: QSVVTQPPSVSGAPGQRVTISCTGNSSNIGAGYDVHWYQQLPGTAPKLLIYGNSNRPSGIPDRFSGSKSGTSATLGITGLQTGDEADYYCGTWDSSLSAGVFGTGTKVTVL
notes: as for B1
[1]
  binding result: binds

B4: anti-B7-H3 antibody (VA clone) (antibody, V domains shown)
VH: QVQLVQSGAEVKKPGASVKVSCKASGYTFTDSYMHWVRQAPGQGLEWMGWISPRTGGTDYAQKFQGRVTMTRDTSISTAYMELSRLRSDDTAVYYCARGSSRGNDYWGQGTLVTVSS
VL: QSVLTQPASVSGSPGQSITISCTGTGSDVGGYNYVSWYQQHPGKAPKLIIYDVTKRPSGFSNRFSGSKSGNTASLTISGLQAEDEADYYCSSYTSRRTYVFGTGTKLTVL
notes: It was tested as a fully human IgG ('IgG protein', captured by anti-human Fc); also called B7-H3-VA; B7-H3 VA
[2]
  binding result: binds
Human B7-H6
  binding result: no binding
Human B7-H7
  binding result: no binding
Human B7.1
  binding result: no binding
Human B7.2
  binding result: no binding
Human B7-H1
  binding result: no binding
Human B7-H2
  binding result: no binding
Human B7-H4
  binding result: no binding
Human B7-H5
  binding result: no binding

B5: anti-B7-H3 antibody (VA LALA clone) (antibody, V domains shown)
VH: QVQLVQSGAEVKKPGASVKVSCKASGYTFTDSYMHWVRQAPGQGLEWMGWISPRTGGTDYAQKFQGRVTMTRDTSISTAYMELSRLRSDDTAVYYCARGSSRGNDYWGQGTLVTVSS
VL: QSVLTQPASVSGSPGQSITISCTGTGSDVGGYNYVSWYQQHPGKAPKLIIYDVTKRPSGFSNRFSGSKSGNTASLTISGLQAEDEADYYCSSYTSRRTYVFGTGTKLTVL
notes: also called B7-H3-VA LALA; B7-H3-VA-LALA
Human B7-H6
  binding result: no binding
Human B7-H7
  binding result: no binding
Human B7.1
  binding result: no binding
Human B7.2
  binding result: no binding
Human B7-H1
  binding result: no binding
Human B7-H2
  binding result: no binding
Human B7-H4
  binding result: no binding
Human B7-H5
  binding result: no binding

B6: B3-D1 (antibody, V domains shown)
VH: EVQLVQSGAELKKPGASVKVSCKASGHTFTSYYIHWVRQAPGQGLEWMGIINPSGDSTSYAQKFQGRVTMTRDTSTSTVYMELSSLTSEDTAVYYCARAIDYGGPYWYLDLWGRGTLVTVSS
VL: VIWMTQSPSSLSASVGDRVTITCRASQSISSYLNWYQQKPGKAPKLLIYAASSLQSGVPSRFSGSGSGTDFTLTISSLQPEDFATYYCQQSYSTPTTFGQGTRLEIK
notes: as for B1
[1]
  binding result: binds

B7: B3-A6 (antibody, V domains shown)
VH: QVQLQQSGPGLVKPSQTLSLTCAISGDSVSSNSAAWNWIRQSPSRGLEWLGRTYYRSKWYNDYAVSVKSRITINPDTSKNQFSLQLNSVTPEDTAVYYCAREGIAVAALWDWGQGTLVTVSS
VL: QAVLTQPPSASGTPGQRVTISCSGSSSNIGSNYVSWYQQLPGTAPKLLMYSNNHRPSGVPDRFSGSKSGTSASLAISGLRTEDEADYYCAAWDDSLSGQVFGGGTKLTVL
notes: It was captured by anti-human Fc, so it was tested as an antibody with a human Fc
[1]
  binding result: binds

B8: B3-2E3 (antibody, V domains shown)
VH: QVQLVESGGGVVQPGRSLRLSCVASEFTFSSYTIHWVRQAPGKGLEWVAVISHDGSNKYYADSVKGRFTISRDNSKNTLYLQMSSLRAEDTAVYYCAGDRYVYNYYGMDVWGQGTTVTVSS
VL: DIVMTQSPSSLSAYVGDRVTITCRASQDIRTYLAWYQQKPGTAPKLLISGASILRSGVPSRFSGSGSGRDFTLSITSLQPEDFATYYCQQLYSYPPWTFGQGTKVEIK
notes: as for B1
[1]
  binding result: binds

From patent publication EP4473018A2 (dated 2024)
